Results: patent US7871610B2, “Antibodies to Tie1 ectodomain” (Dyax Corp., priority 2003, dated 2011)

How the values were obtained:
[1] = molecular target: T1, recombinant human Tie1-Fc (Homo sapiens, UniProt P35590); assay: BIAcore, coated E3 IgGs with recombinant human Tie-1 Fc; type: binding; conditions: IgG, human Tie1 Fc
T1 construct: selected against the Tie1 extracellular domain fused to human Fc or to a histidine purification tag
T1 sequence (P35590 22-759 limits assumed): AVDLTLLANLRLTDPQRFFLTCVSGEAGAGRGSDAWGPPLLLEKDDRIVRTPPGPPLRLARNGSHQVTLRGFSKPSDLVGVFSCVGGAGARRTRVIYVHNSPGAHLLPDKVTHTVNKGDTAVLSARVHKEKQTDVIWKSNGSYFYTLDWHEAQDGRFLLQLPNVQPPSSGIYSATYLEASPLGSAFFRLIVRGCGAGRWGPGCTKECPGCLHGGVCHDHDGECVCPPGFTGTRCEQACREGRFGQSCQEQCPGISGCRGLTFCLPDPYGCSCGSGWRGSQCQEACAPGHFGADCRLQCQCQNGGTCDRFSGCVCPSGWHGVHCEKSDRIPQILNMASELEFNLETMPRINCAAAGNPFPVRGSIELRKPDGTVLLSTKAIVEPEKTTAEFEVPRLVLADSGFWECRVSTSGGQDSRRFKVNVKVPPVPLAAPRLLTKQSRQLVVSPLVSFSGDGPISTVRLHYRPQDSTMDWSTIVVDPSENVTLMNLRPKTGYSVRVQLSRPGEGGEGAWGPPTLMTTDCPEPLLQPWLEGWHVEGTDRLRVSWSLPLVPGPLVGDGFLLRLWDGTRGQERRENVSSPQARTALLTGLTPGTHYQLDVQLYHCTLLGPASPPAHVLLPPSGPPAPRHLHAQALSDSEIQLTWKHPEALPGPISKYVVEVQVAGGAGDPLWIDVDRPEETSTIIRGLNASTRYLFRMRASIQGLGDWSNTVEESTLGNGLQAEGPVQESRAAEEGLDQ
Experimental: The germlined E3 IgG1 stock solution 0.63 mg/ml was diluted 1/50 in a buffer of pH4.5 and the parental E3 IgG1 stock solution 0.56 mg/ml (2143-001) was diluted 1/50 in a buffer of pH 4.5. The IgG were directly coated onto a CM5 chip. The surface of the chips was activated with a 7 minute pulse of 0.05M NHS/0.2M EDC and the IgG was flowed over until 780RU germlined E3-IgG and 728 non germlined E3 IgG was coated onto the surface. All flow cells were subsequently deactivated with a 7 minute pulse of 1M ethanolamine hydrochloride pH 8.5. All analysis was performed in HBS buffer. Purified recombinant human Tie-1 Fc was diluted 1/28.7 in HBS to obtain a 400 nM stock solution. Serial dilutions were made to obtain 200 nM, 100 nM, 50 nM and 25 nM Tie-1 Fc stocks. For analysis of the association phase samples were injected at 30 μl/min for 8.3 minutes using kinject program. This was followed by a 40 minutes dissociation phase. Any antigen remaining associated to the surface was stripped from the IgG surface at a flow of 50 μl/min with two injections of 10 mM glycine pH 1.5 for 30 secods. All samples were run and analyzed in duplicate
Sensorgrams were analyzed using the simultaneous ka/kd fitting program with 1:1 model in the BIAEVALUATION™ software 3.1.

Tie-1 = assay: Immunohistochemistry of mouse SW480 xenograft tumor sections; conditions: biotinylated E3 IgG1 10 μg/ml, paraffin sections
Experimental: We determined if antibody E3 binds to mouse endothelial cells in mouse xenographs. Immunohistochemistry was performed with biotinylated E3 IgG1 (a,z allotype) antibody and control antibodies anti-CD31 (endothelial cell specific marker) and anti-PCNA (proliferating cell nuclear antigen). Formalin-fixed tumor tissues from a mouse-xenograph containing SW480 cells (ATCC) were tested for the binding pattern of the human anti-Tie1 antibody E3. 5 μm sections of paraffin embedded tissues were deparaffinized, rehydrated and pretreated with warm the citrate buffer (0.01 M sodium citrate, pH6 at 95° C.) for 45 min. The slides were cooled down in fresh citrate buffer for 20 min and rinsed with distilled water. The slides were hydrogen peroxide treated, (0.3% H2O2 in PBS), and preincubated with PBS, 5% FCS, 5% heat inactivated human serum (HS) for 1 hour. Between antibody incubations slides were washed 3 times 5 minutes in PBS. Biotinylated antibodies E3 and A2-SV were diluted to a concentration of 10 μg/ml in PBS, 10% HS and incubated for 1 hour at RT. Slides were then incubated with an avidin-HRP (Dako) for 30 minutes at room temperature. Staining was detected by AEC (Vector Laboratories, Burlingame) and H2O2. The peroxidase reaction was stopped with water and slides were counter-stained with haematoxylin. The tissues were evaluated for their binding reactivity.

Tie1 = Tie1 (Homo sapiens, UniProt P35590); assay: Immunohistochemistry of matched human tumor and normal tissue sections; parameters: from tissue; host or cells: fresh frozen normal and tumor tissue (e.g. lung, kidney, skin, breast); conditions: fresh frozen tissue
Tie1, sequence (P35590 22-1138): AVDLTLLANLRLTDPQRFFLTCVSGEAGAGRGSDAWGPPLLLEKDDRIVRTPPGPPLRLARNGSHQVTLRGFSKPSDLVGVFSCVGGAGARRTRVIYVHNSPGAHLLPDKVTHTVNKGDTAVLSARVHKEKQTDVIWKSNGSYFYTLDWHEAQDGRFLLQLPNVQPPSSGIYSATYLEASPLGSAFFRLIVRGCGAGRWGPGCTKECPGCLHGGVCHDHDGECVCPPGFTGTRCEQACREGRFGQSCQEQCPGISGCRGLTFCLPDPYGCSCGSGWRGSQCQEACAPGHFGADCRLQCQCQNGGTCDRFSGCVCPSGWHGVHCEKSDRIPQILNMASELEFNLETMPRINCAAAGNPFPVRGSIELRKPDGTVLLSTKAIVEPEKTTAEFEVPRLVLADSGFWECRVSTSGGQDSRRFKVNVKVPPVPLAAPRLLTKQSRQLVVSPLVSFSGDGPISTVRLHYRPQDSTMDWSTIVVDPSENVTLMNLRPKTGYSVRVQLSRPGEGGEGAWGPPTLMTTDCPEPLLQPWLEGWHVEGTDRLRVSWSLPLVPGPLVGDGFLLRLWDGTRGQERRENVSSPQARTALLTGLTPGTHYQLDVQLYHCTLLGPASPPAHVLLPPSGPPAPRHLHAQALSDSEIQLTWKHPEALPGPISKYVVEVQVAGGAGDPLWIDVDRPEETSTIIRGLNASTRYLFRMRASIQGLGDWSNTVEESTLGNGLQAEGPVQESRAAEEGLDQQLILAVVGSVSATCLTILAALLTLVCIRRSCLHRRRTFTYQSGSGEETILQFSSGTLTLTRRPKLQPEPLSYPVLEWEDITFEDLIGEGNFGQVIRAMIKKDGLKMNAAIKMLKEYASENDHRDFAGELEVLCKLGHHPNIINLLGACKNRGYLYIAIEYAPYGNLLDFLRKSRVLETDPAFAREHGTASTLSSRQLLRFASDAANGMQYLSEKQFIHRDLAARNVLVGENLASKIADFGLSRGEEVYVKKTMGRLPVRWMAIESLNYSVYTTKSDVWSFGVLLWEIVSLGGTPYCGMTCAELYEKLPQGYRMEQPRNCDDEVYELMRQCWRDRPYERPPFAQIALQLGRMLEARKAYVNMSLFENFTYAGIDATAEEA
Experimental: The Tie-1 antibodies were biotinylated using the EZ-link Sulfo-NHS-SS-Biotin (Pierce, Cat. 21331). For Tie-1/Fc and Tie-1-His, the reaction was performed for 2 hours on ice in 50 mM sodium carbonate buffer, pH 9.6, in the presence of a 5-fold molar excess of biotinylating agent. For the antibodies, the reaction was performed for 2 hours on ice in PBS, in the presence of a 15-fold molar excess of EZ-link Sulfo-NHS-SS-Biotin. The reaction was stopped by the addition of Tris-HCl, pH 7.5 (50 mM final concentration) followed by a 1-hour incubation on ice. Samples were then dialyzed against PBS.
Various normal and tumor tissue sections were stained with biotinylated antibodies. A mouse monoclonal anti-Tie1 antibody (7e8) (Alitalo laboratory, University of Helsinki) was used as a positive control. Sections without primary antibody served as negative control. All samples were fresh frozen tissues and staining was performed with the TSA-kit (Perkin-Elmer Life Sciences). After acetone fixation (10-20 min, −20° C.) the slides were treated with 0.73% H2O2 for 10 min to reduce endogenous peroxidase activity followed by blocking for 30 min with TNB buffer. Sections ([…] thick) were incubated with primary antibodies (10 μg/ml) overnight at 4° C. Sections with the mouse monoclonal anti-tie1 antibody (7e8) were treated with biotinylated anti-mouse antibodies (VectaStain) before the addition of streptavidin-HRP. Signal was amplified by using a TSA kit and the visualized by AEC (235 ml NaAc, 15 ml AEC (stock solution: 1600 mg 3-amino-9-ethyl-carbazole and 480 ml N-dimethylformamide), 250 μl H2O2).

B1: E3: human anti-Tie1 antibody from Fab phage library; HC SEQ ID NO:114, LC SEQ ID NO:116 (antibody, V domains shown)
VH: EVQLLESGGGLVQPGGSLRLSCAASGFTFSMYGMVWVRQAPGKGLEWVSVISPSGGNTGYADSVKGRFTISRDNSKNTLYLQVNSLRAEDTAVYYCARAPRGYSYGYYYWGQGTLVTVSSASTKGPSVFPLAPSSKSTSGG
VL: DIQMTQSPLSLSASVGDRVTITCRASQGIGHYLAWYQQKPGKVPKLLIYTASTLQSGVPSRFSGSGSGTDFTLTINSLQPEDVATYYCQQFNSYPHTFGQGTRLDIK
modifications: Synthetically generated peptide
- effect of germlining on binding activity [1]: minimal impact on the binding activity
- staining pattern in mouse xenograft tumor tissue (Tie-1): consistent with staining of mouse endothelial cell Tie-1
- staining of breast carcinoma (Tie1; 10 μg/ml): stained also other structures in addition to vessels
- staining of hypernephroma tissue (Tie1; 10 μg/ml): clear staining
- staining of kidney (Tie1; 10 μg/ml): stained kidney tubules in addition to the vessels
- staining of lung carcinoma (Tie1; 10 μg/ml): stained structures other than vessels
- staining of melanoma tissue (Tie1; 10 μg/ml): also stained other surrounding structures
- staining of normal lung (large veins) (Tie1; 10 μg/ml): stained especially clearly the large veins
- staining of normal skin (Tie1; 10 μg/ml): stained blood vessels very faintly
- staining of veins and capillaries of mammary tissue (breast) (Tie1; 10 μg/ml): brightest staining
- staining of vessels in normal tissues (tissue specificity) (Tie1; biotinylated IgG 10 μg/ml): stained vessels in the lung and kidney but not in the skin
